B2: Acyl-coenzyme A binding domain containing protein 3 (ACBD3), full length, untagged (natural protein, human, UniProt Q9H3P7 1-528, looked up)
chain: MAAVLNAERLEVSVDGLTLSPDPEERPGAEGAPLLPPPLPPPSPPGSGRGPGASGEQPEPGEAAAGGAAEEARRLEQRWGFGLEELYGLALRFFKEKDGKAFHPTYEEKLKLVALHKQVLMGPYNPDTCPEVGFFDVLGNDRRREWAALGNMSKEDAMVEFVKLLNRCCHLFSTYVASHKIEKEEQEKKRKEEEERRRREEEERERLQKEEEKRRREEEERLRREEEERRRIEEERLRLEQQKQQIMAALNSQTAVQFQQYAAQQYPGNYEQQQILIRQLQEQHYQQYMQQLYQVQLAQQQAALQKQQEVVVAGSSLPTSSKVNATVPSNMMSVNGQAKTHTDSSEKELEPEAAEEALENGPKESLPVIAAPSMWTRPQIKDFKEKIQQDADSVITVGRGEVVTVRVPTHEEGSYLFWEFATDNYDIGFGVYFEWTDSPNTAVSVHVSESSDDDEEEEENIGCEEKAKKNANKPLLDEIVPVYRRDCHEEVYAGSHQYPGRGVYLLKFDNSYSLWRSKSVYYRVYYTR
notes: ACBD3, human, UniProtKB entry Q9H3P7, full length; Called untagged in the pull-downs; also called GCP60; PAP7; source: E. coli BL21 Star, purified (Ni-NTA, TEV, SEC); not shown: His6, N-terminal, cleaved; GB1, N-terminal, cleaved
B5: PI4KB, untagged (residues 423-522 removed) (enzyme, human, UniProt Q9UBF8 1-816, looked up)
chain: MGDTVVEPAPLKPTSEPTSGPPGNNGGSLLSVITEGVGELSVIDPEVAQKACQEVLEKVKLLHGGVAVSSRGTPLELVNGDGVDSEIRCLDDPPAQIREEEDEMGAAVASGTAKGARRRRQNNSAKQSWLLRLFESKLFDISMAISYLYNSKEPGVQAYIGNRLFCFRNEDVDFYLPQLLNMYIHMDEDVGDAIKPYIVHRCRQSINFSLQCALLLGAYSSDMHISTQRHSRGTKLRKLILSDELKPAHRKRELPSLSPAPDTGLSPSKRTHQRSKSDATASISLSSNLKRTASNPKVENEDEELSSSTESIDNSFSSPVRLAPEREFIKSLMAIGKRLATLPTKEQKTQRLISELSLLNHKLPARVWLPTAGFDHHVVRVPHTQAVVLNSKDKAPYLIYVEVLECENFDTTSVPARIPENRRDPEDPSAVALKEPWQEKVRRIREGSPYGHLPNWRLLSVIVKCGDDLRQELLAFQVLKQLQSIWEQERVPLWIKPYKILVISADSGMIEPVVNAVSIHQVKKQSQLSLLDYFLQEHGSYTTEAFLSAQRNFVQSCAGYCLVCYLLQVKDRHNGNILLDAEGHIIHIDFGFILSSSPRNLGFETSAFKLTTEFVDVMGGLDGDMFNYYKMLMLQGLIAARKHMDKVVQIVEIMQQGSQLPCFHGSSTIRNLKERFHMSMTEEQLQLLVEQMVDGSMRSITTKLYDGFQYLTNGIM
notes: Phosphatidylinositol 4-kinase beta (PI4KB), human, UniProtKB entry Q9UBF8 isoform 1, with the intrinsically disordered region 423-522 removed; Called untagged in the pull-downs; the AUC mass of about 80 kDa fits the deleted form; also called PI4K IIIβ; untagged full-length PI4KB; source: E. coli BL21 Star, purified (Ni-NTA, TEV, SEC); not shown: His6, N-terminal, cleaved; GB1, N-terminal, cleaved

Key:
Conditions in all cases: both partners purified
[1] = target: B5; experiment: pull-down; Ni-NTA sepharose beads, one partner with N-terminal His6GB1 tag immobilised, both partners 1 μM in 200 μL 30 mM Tris pH 8, 200 mM NaCl, 10 mM imidazole, 1 mM TCEP; 30 min at 4 °C; SDS gels stained with Coomassie Blue
[2] = target: T1, His6GB1-tagged PI4KB V47A mutant (human, UniProt Q9UBF8 1-816, V47A | residues 423–522 removed); experiment: as above
T1 construct: PI4KB, human, UniProtKB Q9UBF8 isoform 1, residues 423-522 removed, point mutant; source: E. coli BL21 Star, purified (Ni-NTA, SEC); not shown: His6, N-terminal, kept; GB1, N-terminal, kept

[3] = target: T2, His6GB1-tagged PI4KB V42A mutant (human, UniProt Q9UBF8 1-816, V42A | residues 423–522 removed); experiment: as above
T2 construct: PI4KB, human, UniProtKB Q9UBF8 isoform 1, residues 423-522 removed, point mutant; source: E. coli BL21 Star, purified (Ni-NTA, SEC); not shown: His6, N-terminal, kept; GB1, N-terminal, kept

[4] = target: B5; experiment: SPR; legend: PI4KB binding to immobilized ACBD3; methods: PI4KB chip-immobilized, ACBD3 injected in a series of concentrations for 3 min, dissociation 5 min; single-exponential model
[5] = target: B2; experiment: pull-down; Ni-NTA sepharose beads, one partner with N-terminal His6GB1 tag immobilised, both partners 1 μM in 200 μL 30 mM Tris pH 8, 200 mM NaCl, 10 mM imidazole, 1 mM TCEP; 30 min at 4 °C; SDS gels stained with Coomassie Blue
[6] = target: T3, N-terminal His6GB1-tagged PI4KB (residues 423-522 removed) (human, UniProt Q9UBF8 1-816, residues 423–522 removed); experiment: as above
T3 construct: Phosphatidylinositol 4-kinase beta (PI4KB), human, UniProtKB entry Q9UBF8 isoform 1, with the intrinsically disordered region 423-522 removed; also called PI4K IIIβ; His6-tagged wild type PI4KB; source: E. coli BL21 Star, purified (Ni-NTA, SEC); not shown: His6, N-terminal, kept; GB1, N-terminal, kept

[7] = target: B2; experiment: AUC; sedimentation velocity, full-length proteins alone and as complex, 5 μM (both proteins); 10 mM Tris pH 8, 200 mM NaCl, 3 mM β-mercaptoethanol, 20 °C, 48000 rpm; c(s) model

B1: N-terminal His6GB1-tagged ACBD3 Q domain (residues 241-308) (domain or fragment, human, UniProt Q9H3P7 241-308, looked up)
chain: QQKQQIMAALNSQTAVQFQQYAAQQYPGNYEQQQILIRQLQEQHYQQYMQQLYQVQLAQQQAALQKQQ
notes: ACBD3 Q domain (glutamine rich region), human, UniProtKB Q9H3P7, residues 241-308; also called Q domain of ACBD3; source: E. coli BL21 Star, purified (Ni-NTA, SEC); not shown: His6, N-terminal, kept; GB1, N-terminal, kept
B1: binds [1].

In the case of B2, the binding result [2] is reported as “binds”, the binding result [3] is reported as “binds” and the Kd [4] is reported as 320 nM.

B3: N-terminal His6GB1-tagged PI4KB N-terminal region (residues 1-68) (domain or fragment, human, UniProt Q9UBF8 1-68, looked up)
chain: MGDTVVEPAPLKPTSEPTSGPPGNNGGSLLSVITEGVGELSVIDPEVAQKACQEVLEKVKLLHGGVAV
notes: PI4KB N-terminal region preceding the helical domain, human, UniProtKB Q9UBF8 isoform 1, residues 1-68; also called N-terminal region of PI4KB; source: E. coli BL21 Star, purified (Ni-NTA, SEC); not shown: His6, N-terminal, kept; GB1, N-terminal, kept
B3: binds [5].

B4: ACBD3 Y266A mutant, untagged (natural protein, human, UniProt Q9H3P7 1-528, looked up)
chain: MAAVLNAERLEVSVDGLTLSPDPEERPGAEGAPLLPPPLPPPSPPGSGRGPGASGEQPEPGEAAAGGAAEEARRLEQRWGFGLEELYGLALRFFKEKDGKAFHPTYEEKLKLVALHKQVLMGPYNPDTCPEVGFFDVLGNDRRREWAALGNMSKEDAMVEFVKLLNRCCHLFSTYVASHKIEKEEQEKKRKEEEERRRREEEERERLQKEEEKRRREEEERLRREEEERRRIEEERLRLEQQKQQIMAALNSQTAVQFQQYAAQQAPGNYEQQQILIRQLQEQHYQQYMQQLYQVQLAQQQAALQKQQEVVVAGSSLPTSSKVNATVPSNMMSVNGQAKTHTDSSEKELEPEAAEEALENGPKESLPVIAAPSMWTRPQIKDFKEKIQQDADSVITVGRGEVVTVRVPTHEEGSYLFWEFATDNYDIGFGVYFEWTDSPNTAVSVHVSESSDDDEEEEENIGCEEKAKKNANKPLLDEIVPVYRRDCHEEVYAGSHQYPGRGVYLLKFDNSYSLWRSKSVYYRVYYTR
notes: ACBD3, human, UniProtKB Q9H3P7, point mutant; source: E. coli BL21 Star, purified (Ni-NTA, TEV, SEC); not shown: His6, N-terminal, cleaved; GB1, N-terminal, cleaved
B4: binds [6].

For B5, the “stoichiometry N” value [7] was 1.
